For 14 molecules, binding result and ELISA signal results are on record in patent US20100151003A1 (Janssen / Centocor, published 2010).

Like-named read-outs stand apart in the source and are kept apart here. Bridges are numbered along the chain shown (N, C = ends). Where no end group is shown, it is not given here.

The target of experiment [1] is T1, sEGFR-MMB (dimeric soluble EGFR ectodomain mimetibody) (human).
T1 construct: also called sEGFR mimetibody; sEGFR-Fc
The experiment is described as follows: phage ELISA, coated sEGFR-MMB. For orientation: An ELISA detects its analyte on a solid surface through an enzyme-linked reagent.

The target of experiment [2] is T1, sEGFR-MMB (dimeric soluble EGFR …). The experiment is described as follows: phage ELISA on coated sEGFR-MMB, chemiluminescence; background typically <200 units.
For experiment [3] the target is unchanged. The experiment is described as above. The source holds these as a separate data set.
Experiment [4] concerns the target T2, Streptavidin.
T2 construct: also called Streptavidin alone; SA
The experiment is described as follows: phage ELISA on streptavidin alone [C].

In experiment [5] the target is T3, Control-MMB (CNTO 360) (Homo sapiens (Human), UniProt P0DOX5 111-449 = IgG part).
T3 construct: Described as human IgG1 heavy chain dimer absent the variable and most of the CH1 domains; also called blank mimetibody scaffold protein
In words: phage ELISA on coated Control-MMB [A].

The target in experiment [6] is T4, Human extracellular EGFR-His6 (sEGFR-His6) (human, UniProt P00533 25-645).
T4 construct: Monomeric, expressed in HEK293E, glycosylated; also called sEGFR-6×His; monomeric sEGFR
In words: phage ELISA, coated sEGFR-His6.

Experiment [7] deals with T5, biotinylated sEGFR-His6 (human, UniProt P00533 25-645, biotinylated (sites not given)).
T5 construct: Captured on streptavidin-coated wells in the ELISA; also called b-sEGFR-His; b-sEGFR-His6
The experiment is described as follows: phage ELISA, biotinylated receptor captured on streptavidin.

Experiment [8] concerns the target T6, biotinylated sEGFR-MMB (human, biotinylated with sulfo-NHS-LC-biotin (sites not given)).
T6 construct: Captured on streptavidin-coated wells in the ELISA; also called b-sEGFR-MMB; b-sEGFR MMB
Described as above.

The target in experiment [9] is T7, b-sEGFR-strep (human, UniProt P00533, biotinylated, sites not given).
T7 construct: soluble ectodomain, monomeric, strep II tag; captured on streptavidin-coated wells; also called strepII-tagged sEGFR; strep II-tagged sEGFR purchased from Research Diagnostics
Described as above.

Experiment [10] concerns the target T1, sEGFR-MMB (dimeric soluble EGFR …). In words: phage ELISA on coated sEGFR-MMB; second bar with EGF 10 ug/ml as competitor.

T1 sequence (chain, as listed by the source limits assumed): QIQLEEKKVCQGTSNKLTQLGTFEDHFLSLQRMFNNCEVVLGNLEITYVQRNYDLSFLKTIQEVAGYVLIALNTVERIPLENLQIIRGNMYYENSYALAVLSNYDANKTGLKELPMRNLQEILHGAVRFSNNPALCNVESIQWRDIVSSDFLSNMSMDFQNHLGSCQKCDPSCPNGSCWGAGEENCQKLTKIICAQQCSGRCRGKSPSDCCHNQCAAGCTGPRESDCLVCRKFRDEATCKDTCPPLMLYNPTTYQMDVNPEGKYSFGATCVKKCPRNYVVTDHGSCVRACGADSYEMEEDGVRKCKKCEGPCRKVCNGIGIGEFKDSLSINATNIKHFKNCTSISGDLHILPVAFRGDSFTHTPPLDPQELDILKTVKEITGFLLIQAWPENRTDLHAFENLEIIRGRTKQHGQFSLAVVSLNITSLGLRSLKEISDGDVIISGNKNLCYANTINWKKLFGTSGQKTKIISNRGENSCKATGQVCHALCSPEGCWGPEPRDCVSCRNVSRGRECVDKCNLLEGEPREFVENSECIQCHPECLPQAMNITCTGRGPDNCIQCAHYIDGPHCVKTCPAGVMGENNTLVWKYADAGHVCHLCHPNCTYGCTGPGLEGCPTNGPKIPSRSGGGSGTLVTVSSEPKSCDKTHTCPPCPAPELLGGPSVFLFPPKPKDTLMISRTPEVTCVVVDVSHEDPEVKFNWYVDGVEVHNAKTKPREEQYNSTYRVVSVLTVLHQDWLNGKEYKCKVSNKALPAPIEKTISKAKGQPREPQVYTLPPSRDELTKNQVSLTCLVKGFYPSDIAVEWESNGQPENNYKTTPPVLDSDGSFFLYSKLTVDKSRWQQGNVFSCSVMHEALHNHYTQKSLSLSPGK
T6 sequence (chain, as listed by the source limits assumed): as above

B1: phage P193 (pIII CNL1-11) (peptide)
chain: AGSYYWGYTVDIRRGG
notes: Tested as whole phage displaying the peptide on pIII; also called PHPEP193; not shown: M13 phage coat protein pIII, mature (TVESC...)
For the molecule B1, in experiment [1], the binding result is on record as “binds”.

B2: phage P178 (pIX S17) (peptide)
peptide: GGGRWCYFWWITICELGGGSGGSGG
modifications: disulfide 6-14
notes: Tested as whole phage, pIX phagemid display; also called PP178; not shown: M13 coat protein pIX (display carrier at the C end)
Consider B2, for which the ELISA signal in [2] is 7910 units.

B3: S20 library phage hit SEQ ID NO: 44 (peptide)
chain: GGGWMCFLEGYGASLMCQC
notes: Tested as whole phage, pIX phagemid display
As to B3, the ELISA signal in experiment [3] amounted to 4800 units.

B4: S20 library phage hit SEQ ID NO: 43 (peptide)
chain: GGGPTCDSATRRVLTICAD
notes: as for B3
Regarding B4, the ELISA signal in experiment [3] turned out to be 5420 units.

B5: S20 library phage hit SEQ ID NO: 49 (peptide)
chain: GGGLLCATTSFRDWFVCFT
notes: as for B3
B5: the ELISA signal in experiment [3] amounted to 4510 units.

B6: phage P176 (pIX S20) (peptide)
chain: GGGKTCVSTTFDLWFVCFA
modifications: disulfide 6-17; also: displayed on whole phage via pIX
notes: Tested as whole phage, pIX phagemid display; also called PP176
Regarding B6, the binding result in [4] and in [5] was “no binding” in each case. For the same molecule, the ELISA signal in experiment [3] was determined as 37400 units.

B7: phage P194 (pIII CNL1-11) (peptide)
chain: AGSECFPLAPDWLSCILGG
notes: Tested as whole phage displaying the peptide on pIII; also called PHPEP194; not shown: M13 phage coat protein pIII, mature (TVESC...)
B7: the binding result in experiment [6] and in [1] was “binds” each time.

B8: phage P146 (pIII CNL5) (peptide)
chain: AGTLCRSFFHPLCYAGG
notes: Tested as whole phage displaying the peptide on pIII; also called PP146; PHPEP146; not shown: M13 phage coat protein pIII, mature (TVESC...)
B8: the binding result in experiment [7], in experiment [8], in experiment [9] and in experiment [10] was “binds” throughout.

B9: S20 library phage hit SEQ ID NO: 46 (peptide)
chain: GGGYICTPSDIDSWYICYL
notes: as for B3
In experiment [3], B9 registered an ELISA signal of 6620 units.

B10: S20 library phage hit SEQ ID NO: 47 (peptide)
chain: GGGSVCVGTAFPGWMVCGP
notes: as for B3
In turn, B10 gave an ELISA signal in experiment [3] of 4770 units.

B11: S20 library phage hit SEQ ID NO: 45 (peptide)
chain: GGGDSCCSFLTDGTVVCSL
notes: as for B3
B11: the ELISA signal in experiment [3] was determined as 9540 units.

B12: phage P143 (pIII CNL5) (peptide)
chain: AGVLCSNFYHPLCHSGG
notes: Tested as whole phage displaying the peptide on pIII; also called PP143; not shown: M13 phage coat protein pIII, mature (TVESC...)
On to B12, for which the binding result in experiment [7], in experiment [8], in experiment [9] and in [10] was “binds” throughout.

B13: phage P145 (pIII CNL5) (peptide)
chain: AGVLCHRYYHPICYTGG
notes: Tested as whole phage displaying the peptide on pIII; also called PP145; PHPEP145; not shown: M13 phage coat protein pIII, mature (TVESC...)
Consider B13, for which the binding result in experiment [7], in [8], in experiment [9] and in [10] was “binds” throughout.

B14: phage P177 (pIX S16) (peptide)
peptide: GGGDACTMVFLWCSLGGGSGGSGG
modifications: disulfide 6-13
notes: Tested as whole phage, pIX phagemid display; also called PP177; not shown: M13 coat protein pIX (display carrier at the C end)
In experiment [2], B14 returned an ELISA signal of 8660 units.
